T1: human IL-18BP (human, UniProt O95998 31-194)
T1 construct: also called hIL-18BP; Mature Human Isoform A
T1 sequence: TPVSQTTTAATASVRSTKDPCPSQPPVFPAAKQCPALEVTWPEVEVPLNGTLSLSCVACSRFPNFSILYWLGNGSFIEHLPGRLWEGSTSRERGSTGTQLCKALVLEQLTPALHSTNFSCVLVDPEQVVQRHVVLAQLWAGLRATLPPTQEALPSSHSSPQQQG

T2: human IL-18BP (human, UniProt O95998 31-194)
T2 construct: UniProt printed as 095998; also called hIL-18BP
T2 sequence: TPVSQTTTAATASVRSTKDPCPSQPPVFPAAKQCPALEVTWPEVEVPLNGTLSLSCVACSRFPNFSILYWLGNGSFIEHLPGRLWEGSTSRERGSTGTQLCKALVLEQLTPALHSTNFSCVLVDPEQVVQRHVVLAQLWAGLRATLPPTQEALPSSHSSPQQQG

B1: SA301a light chain variant V29T (antibody, V domains shown)
VH: QVQLQESGPGLVKPSQTLSLTCTVSGYSITSDYNSHWIRQPPGKGLEWIGYIHYSGSTNYNPSLKSRVTISRDTSKNQFSLKLSSVTAADTAVYYCARNYGSIYVNYFDYWGQGTLVTVSS
VL: EIVLTQSPATLSLSPGERATLSCSASSSTSYMYWYQQKPGQAPRPLIYRTSNLASGIPARFSGSGSGTDFTLTISSLEPEDFAVYYCQQYHSYPTFGGGTKVEIK
B2: SA301a light chain variant V29P (antibody, V domains shown)
VH: QVQLQESGPGLVKPSQTLSLTCTVSGYSITSDYNSHWIRQPPGKGLEWIGYIHYSGSTNYNPSLKSRVTISRDTSKNQFSLKLSSVTAADTAVYYCARNYGSIYVNYFDYWGQGTLVTVSS
VL: EIVLTQSPATLSLSPGERATLSCSASSSPSYMYWYQQKPGQAPRPLIYRTSNLASGIPARFSGSGSGTDFTLTISSLEPEDFAVYYCQQYHSYPTFGGGTKVEIK
B3: SA301a light chain variant V29Q (antibody, V domains shown)
VH: QVQLQESGPGLVKPSQTLSLTCTVSGYSITSDYNSHWIRQPPGKGLEWIGYIHYSGSTNYNPSLKSRVTISRDTSKNQFSLKLSSVTAADTAVYYCARNYGSIYVNYFDYWGQGTLVTVSS
VL: EIVLTQSPATLSLSPGERATLSCSASSSQSYMYWYQQKPGQAPRPLIYRTSNLASGIPARFSGSGSGTDFTLTISSLEPEDFAVYYCQQYHSYPTFGGGTKVEIK
B4: SA301a light chain variant V29E (antibody, V domains shown)
VH: QVQLQESGPGLVKPSQTLSLTCTVSGYSITSDYNSHWIRQPPGKGLEWIGYIHYSGSTNYNPSLKSRVTISRDTSKNQFSLKLSSVTAADTAVYYCARNYGSIYVNYFDYWGQGTLVTVSS
VL: EIVLTQSPATLSLSPGERATLSCSASSSESYMYWYQQKPGQAPRPLIYRTSNLASGIPARFSGSGSGTDFTLTISSLEPEDFAVYYCQQYHSYPTFGGGTKVEIK
B5: SA301a light chain variant S30L (antibody, V domains shown)
VH: QVQLQESGPGLVKPSQTLSLTCTVSGYSITSDYNSHWIRQPPGKGLEWIGYIHYSGSTNYNPSLKSRVTISRDTSKNQFSLKLSSVTAADTAVYYCARNYGSIYVNYFDYWGQGTLVTVSS
VL: EIVLTQSPATLSLSPGERATLSCSASSSVLYMYWYQQKPGQAPRPLIYRTSNLASGIPARFSGSGSGTDFTLTISSLEPEDFAVYYCQQYHSYPTFGGGTKVEIK
B6: SA301a HC-Y96L (antibody, name in Kabat numbering, V domains shown)
VH: QVQLQESGPGLVKPSQTLSLTCTVSGYSITSDYNSHWIRQPPGKGLEWIGYIHYSGSTNYNPSLKSRVTISRDTSKNQFSLKLSSVTAADTAVYYCARNLGSIYVNYFDYWGQGTLVTVSS
VL: EIVLTQSPATLSLSPGERATLSCSASSSVSYMYWYQQKPGQAPRPLIYRTSNLASGIPARFSGSGSGTDFTLTISSLEPEDFAVYYCQQYHSYPTFGGGTKVEIK
notes: IgG1 kappa
B7: SA301a HC-Y96I (antibody, name in Kabat numbering, V domains shown)
VH: QVQLQESGPGLVKPSQTLSLTCTVSGYSITSDYNSHWIRQPPGKGLEWIGYIHYSGSTNYNPSLKSRVTISRDTSKNQFSLKLSSVTAADTAVYYCARNIGSIYVNYFDYWGQGTLVTVSS
VL: EIVLTQSPATLSLSPGERATLSCSASSSVSYMYWYQQKPGQAPRPLIYRTSNLASGIPARFSGSGSGTDFTLTISSLEPEDFAVYYCQQYHSYPTFGGGTKVEIK
notes: IgG1 kappa
B8: SA301a HC-Y96T (antibody, name in Kabat numbering, V domains shown)
VH: QVQLQESGPGLVKPSQTLSLTCTVSGYSITSDYNSHWIRQPPGKGLEWIGYIHYSGSTNYNPSLKSRVTISRDTSKNQFSLKLSSVTAADTAVYYCARNTGSIYVNYFDYWGQGTLVTVSS
VL: EIVLTQSPATLSLSPGERATLSCSASSSVSYMYWYQQKPGQAPRPLIYRTSNLASGIPARFSGSGSGTDFTLTISSLEPEDFAVYYCQQYHSYPTFGGGTKVEIK
notes: IgG1 kappa
B9: SA301a HC-Y96N (antibody, name in Kabat numbering, V domains shown)
VH: QVQLQESGPGLVKPSQTLSLTCTVSGYSITSDYNSHWIRQPPGKGLEWIGYIHYSGSTNYNPSLKSRVTISRDTSKNQFSLKLSSVTAADTAVYYCARNNGSIYVNYFDYWGQGTLVTVSS
VL: EIVLTQSPATLSLSPGERATLSCSASSSVSYMYWYQQKPGQAPRPLIYRTSNLASGIPARFSGSGSGTDFTLTISSLEPEDFAVYYCQQYHSYPTFGGGTKVEIK
notes: IgG1 kappa
B10: SA301a HC-Y96G (antibody, name in Kabat numbering, V domains shown)
VH: QVQLQESGPGLVKPSQTLSLTCTVSGYSITSDYNSHWIRQPPGKGLEWIGYIHYSGSTNYNPSLKSRVTISRDTSKNQFSLKLSSVTAADTAVYYCARNGGSIYVNYFDYWGQGTLVTVSS
VL: EIVLTQSPATLSLSPGERATLSCSASSSVSYMYWYQQKPGQAPRPLIYRTSNLASGIPARFSGSGSGTDFTLTISSLEPEDFAVYYCQQYHSYPTFGGGTKVEIK
notes: IgG1 kappa
B11: SA301a HC-Y96S (antibody, name in Kabat numbering, V domains shown)
VH: QVQLQESGPGLVKPSQTLSLTCTVSGYSITSDYNSHWIRQPPGKGLEWIGYIHYSGSTNYNPSLKSRVTISRDTSKNQFSLKLSSVTAADTAVYYCARNSGSIYVNYFDYWGQGTLVTVSS
VL: EIVLTQSPATLSLSPGERATLSCSASSSVSYMYWYQQKPGQAPRPLIYRTSNLASGIPARFSGSGSGTDFTLTISSLEPEDFAVYYCQQYHSYPTFGGGTKVEIK
notes: IgG1 kappa
B12: SA301a HC-Y96H (antibody, name in Kabat numbering, V domains shown)
VH: QVQLQESGPGLVKPSQTLSLTCTVSGYSITSDYNSHWIRQPPGKGLEWIGYIHYSGSTNYNPSLKSRVTISRDTSKNQFSLKLSSVTAADTAVYYCARNHGSIYVNYFDYWGQGTLVTVSS
VL: EIVLTQSPATLSLSPGERATLSCSASSSVSYMYWYQQKPGQAPRPLIYRTSNLASGIPARFSGSGSGTDFTLTISSLEPEDFAVYYCQQYHSYPTFGGGTKVEIK
notes: IgG1 kappa
B13: SA301a HC-Y96K (antibody, name in Kabat numbering, V domains shown)
VH: QVQLQESGPGLVKPSQTLSLTCTVSGYSITSDYNSHWIRQPPGKGLEWIGYIHYSGSTNYNPSLKSRVTISRDTSKNQFSLKLSSVTAADTAVYYCARNKGSIYVNYFDYWGQGTLVTVSS
VL: EIVLTQSPATLSLSPGERATLSCSASSSVSYMYWYQQKPGQAPRPLIYRTSNLASGIPARFSGSGSGTDFTLTISSLEPEDFAVYYCQQYHSYPTFGGGTKVEIK
notes: IgG1 kappa
B14: SA301a HC-Y96A (antibody, name in Kabat numbering, V domains shown)
VH: QVQLQESGPGLVKPSQTLSLTCTVSGYSITSDYNSHWIRQPPGKGLEWIGYIHYSGSTNYNPSLKSRVTISRDTSKNQFSLKLSSVTAADTAVYYCARNAGSIYVNYFDYWGQGTLVTVSS
VL: EIVLTQSPATLSLSPGERATLSCSASSSVSYMYWYQQKPGQAPRPLIYRTSNLASGIPARFSGSGSGTDFTLTISSLEPEDFAVYYCQQYHSYPTFGGGTKVEIK
notes: IgG1 kappa
B15: SA301a HC-Y96F (antibody, name in Kabat numbering, V domains shown)
VH: QVQLQESGPGLVKPSQTLSLTCTVSGYSITSDYNSHWIRQPPGKGLEWIGYIHYSGSTNYNPSLKSRVTISRDTSKNQFSLKLSSVTAADTAVYYCARNFGSIYVNYFDYWGQGTLVTVSS
VL: EIVLTQSPATLSLSPGERATLSCSASSSVSYMYWYQQKPGQAPRPLIYRTSNLASGIPARFSGSGSGTDFTLTISSLEPEDFAVYYCQQYHSYPTFGGGTKVEIK
notes: IgG1 kappa
B16: SA301a HC-S98Y (antibody, name in Kabat numbering, V domains shown)
VH: QVQLQESGPGLVKPSQTLSLTCTVSGYSITSDYNSHWIRQPPGKGLEWIGYIHYSGSTNYNPSLKSRVTISRDTSKNQFSLKLSSVTAADTAVYYCARNYGYIYVNYFDYWGQGTLVTVSS
VL: EIVLTQSPATLSLSPGERATLSCSASSSVSYMYWYQQKPGQAPRPLIYRTSNLASGIPARFSGSGSGTDFTLTISSLEPEDFAVYYCQQYHSYPTFGGGTKVEIK
notes: IgG1 kappa
B17: SA301a HC-Y96Q (antibody, name in Kabat numbering, V domains shown)
VH: QVQLQESGPGLVKPSQTLSLTCTVSGYSITSDYNSHWIRQPPGKGLEWIGYIHYSGSTNYNPSLKSRVTISRDTSKNQFSLKLSSVTAADTAVYYCARNQGSIYVNYFDYWGQGTLVTVSS
VL: EIVLTQSPATLSLSPGERATLSCSASSSVSYMYWYQQKPGQAPRPLIYRTSNLASGIPARFSGSGSGTDFTLTISSLEPEDFAVYYCQQYHSYPTFGGGTKVEIK
notes: IgG1 kappa
B18: SA301a HC-Y96P (antibody, name in Kabat numbering, V domains shown)
VH: QVQLQESGPGLVKPSQTLSLTCTVSGYSITSDYNSHWIRQPPGKGLEWIGYIHYSGSTNYNPSLKSRVTISRDTSKNQFSLKLSSVTAADTAVYYCARNPGSIYVNYFDYWGQGTLVTVSS
VL: EIVLTQSPATLSLSPGERATLSCSASSSVSYMYWYQQKPGQAPRPLIYRTSNLASGIPARFSGSGSGTDFTLTISSLEPEDFAVYYCQQYHSYPTFGGGTKVEIK
notes: IgG1 kappa
B19: SA301a HC-Y96E (antibody, name in Kabat numbering, V domains shown)
VH: QVQLQESGPGLVKPSQTLSLTCTVSGYSITSDYNSHWIRQPPGKGLEWIGYIHYSGSTNYNPSLKSRVTISRDTSKNQFSLKLSSVTAADTAVYYCARNEGSIYVNYFDYWGQGTLVTVSS
VL: EIVLTQSPATLSLSPGERATLSCSASSSVSYMYWYQQKPGQAPRPLIYRTSNLASGIPARFSGSGSGTDFTLTISSLEPEDFAVYYCQQYHSYPTFGGGTKVEIK
notes: IgG1 kappa
B20: SA301a HC-Y96R (antibody, name in Kabat numbering, V domains shown)
VH: QVQLQESGPGLVKPSQTLSLTCTVSGYSITSDYNSHWIRQPPGKGLEWIGYIHYSGSTNYNPSLKSRVTISRDTSKNQFSLKLSSVTAADTAVYYCARNRGSIYVNYFDYWGQGTLVTVSS
VL: EIVLTQSPATLSLSPGERATLSCSASSSVSYMYWYQQKPGQAPRPLIYRTSNLASGIPARFSGSGSGTDFTLTISSLEPEDFAVYYCQQYHSYPTFGGGTKVEIK
notes: IgG1 kappa
B21: SA301a HC-Y96V (antibody, name in Kabat numbering, V domains shown)
VH: QVQLQESGPGLVKPSQTLSLTCTVSGYSITSDYNSHWIRQPPGKGLEWIGYIHYSGSTNYNPSLKSRVTISRDTSKNQFSLKLSSVTAADTAVYYCARNVGSIYVNYFDYWGQGTLVTVSS
VL: EIVLTQSPATLSLSPGERATLSCSASSSVSYMYWYQQKPGQAPRPLIYRTSNLASGIPARFSGSGSGTDFTLTISSLEPEDFAVYYCQQYHSYPTFGGGTKVEIK
notes: IgG1 kappa

One assay concerns the target T1, human IL-18BP. Briefly: BLI, apparent KD, one conc. In general terms: Biolayer interferometry detects binding as a change in optical thickness at a sensor tip.
With B1, the Kd was 0.32 nM.
With B2, the Kd came out at 0.38 nM.
In the case of B3, the Kd was found to be 0.3 nM.
Take B4: the Kd was 0.34 nM.
Take B5: the Kd turned out to be 0.49 nM.

For another assay, the target named is T2, human IL-18BP. Description: BLI, apparent KD.
As to B6, the Kd was determined as 1.08 nM.
The same measure, in the same setting: to B7 belongs 4.02 nM; to B8, 0.61 nM.
B9: the Kd is 2.8 nM.
Same read-out and setting: for B10 the value was 2.5 nM; for B11, 0.87 nM; for B12, 1.24 nM.
As to B13, the Kd turned out to be 15.2 nM.
Consider B14, for which the Kd was 0.47 nM.
On to B15, for which the Kd was found to be 0.13 nM.
Consider B16, for which the Kd turned out to be 0.02 nM.
On the same count and under the same terms, to B17 belongs 0.65 nM; to B18, 0.46 nM; to B19, 0.31 nM.
In the case of B20, the Kd stood at 0.6 nM.
Same read-out and setting: to B21 belongs 1.68 nM.

Source of the values: US20250368745A1 (published 2025).
